# B1: BBSome complex member BBS5 (Homo sapiens), Q8N3I7 (parent)
# chain: MSVLDALWEDRDVRFDLSAQQMKTRPGEVLIDCLDSIEDTKGNNGDRGRLLVTNLRILWHSLALSRVNVSVGYNCILNITTRTANSKLRGQTEALYILTKCNSTRFEFIFTNLVPGSPRLFTSVMAVHRAYETSKMYRDFKLRSALIQNKQLRLLPQEHVYDKINGVWNLSSDQGNLGTFFITNVRIVWHANMNDSFNVSIPYLQIRSIKIRDSKFGLALVIESSQQSGGYVLGFKIDPVEKLQESVKEINSLHKVYSASPIFGVDYEMEEKPQPLEALTVEQIQDDVEIDSDGHTDAFVAYFADGNKQQDREPVFSEELGLAIEKLKDGFTLQGLWEVMS
# partner: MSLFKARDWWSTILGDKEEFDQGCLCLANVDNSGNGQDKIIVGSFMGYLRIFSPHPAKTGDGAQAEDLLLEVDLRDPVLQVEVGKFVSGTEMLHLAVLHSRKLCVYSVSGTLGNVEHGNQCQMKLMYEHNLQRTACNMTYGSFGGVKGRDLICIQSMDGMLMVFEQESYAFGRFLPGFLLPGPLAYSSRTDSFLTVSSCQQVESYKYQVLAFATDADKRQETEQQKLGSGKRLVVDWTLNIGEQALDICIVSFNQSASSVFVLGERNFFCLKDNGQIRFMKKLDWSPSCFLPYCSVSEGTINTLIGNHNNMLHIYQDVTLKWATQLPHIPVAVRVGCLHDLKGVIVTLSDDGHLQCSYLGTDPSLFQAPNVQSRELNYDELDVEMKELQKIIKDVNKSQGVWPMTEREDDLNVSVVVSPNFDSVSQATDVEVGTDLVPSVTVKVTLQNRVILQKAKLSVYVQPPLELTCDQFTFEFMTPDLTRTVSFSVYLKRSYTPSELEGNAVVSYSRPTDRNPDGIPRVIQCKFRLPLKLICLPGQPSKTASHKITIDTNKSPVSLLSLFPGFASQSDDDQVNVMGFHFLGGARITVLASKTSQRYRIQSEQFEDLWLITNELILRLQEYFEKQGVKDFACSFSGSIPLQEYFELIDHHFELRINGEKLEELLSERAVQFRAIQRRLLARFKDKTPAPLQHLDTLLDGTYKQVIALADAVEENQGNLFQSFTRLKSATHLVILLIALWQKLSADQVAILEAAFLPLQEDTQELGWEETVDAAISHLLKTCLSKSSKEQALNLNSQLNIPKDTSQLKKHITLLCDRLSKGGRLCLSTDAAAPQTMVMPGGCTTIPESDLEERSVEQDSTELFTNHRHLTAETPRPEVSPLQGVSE
# B2: Isoform 2 of Bardet-Biedl syndrome 7 protein (Homo sapiens), Q8IWZ6-2 (parent)
# chain: MDLILNRMDYLQVGVTSQKTMKLIPASRHRATQKVVIGDHDGVVMCFGMKKGEAAAVFKTLPGPKIARLELGGVINTPQEKIFIAAASEIRGFTKRGKQFLSFETNLTESIKAMHISGSDLFLSASYIYNHYCDCKDQHYYLSGDKINDVICLPVERLSRITPVLACQDRVLRVLQGSDVMYAVEVPGPPTVLALHNGNGGDSGEDLLFGTSDGKLALIQITTSKPVRKWEIQNEKKRGGILCIDSFDIVGDGVKDLLVGRDDGMVEVYSFDNANEPVLRFDQMLSESVTSIQGGCVGKDSYDEIVVSTYSGWVTGLTTEPIHKESGPGEELKINQEMQNKISSLRNELEHLQYKVLQERENYQQSSQSSKAKSAVPSFGINDKFTLNKDDASYSLILEVQTAIDNVLIQSDVPIDLLDVDKNSAVVSFSSCDSESNDNFLLATYRCQADTTRLELKIRSIEGQYGTLQAYVTPRIQPKTCQVRQYHIKPLSLHQRTHFIDHDRPMNTLTLTGQFSFAEVHSWVVFCLPEVPEKPPAGECVTFYFQNTFLDTQLESTYRKGEGVFKSDNISTISILKDVLSKEATKRKINLNISYEINEVSVKHTLKLIHPKLEYQLLLAKKVQLIDALKELQIHEGNTNFLIPEYHCILEEADHLQEEYKKQPAHLERLYG
# partner: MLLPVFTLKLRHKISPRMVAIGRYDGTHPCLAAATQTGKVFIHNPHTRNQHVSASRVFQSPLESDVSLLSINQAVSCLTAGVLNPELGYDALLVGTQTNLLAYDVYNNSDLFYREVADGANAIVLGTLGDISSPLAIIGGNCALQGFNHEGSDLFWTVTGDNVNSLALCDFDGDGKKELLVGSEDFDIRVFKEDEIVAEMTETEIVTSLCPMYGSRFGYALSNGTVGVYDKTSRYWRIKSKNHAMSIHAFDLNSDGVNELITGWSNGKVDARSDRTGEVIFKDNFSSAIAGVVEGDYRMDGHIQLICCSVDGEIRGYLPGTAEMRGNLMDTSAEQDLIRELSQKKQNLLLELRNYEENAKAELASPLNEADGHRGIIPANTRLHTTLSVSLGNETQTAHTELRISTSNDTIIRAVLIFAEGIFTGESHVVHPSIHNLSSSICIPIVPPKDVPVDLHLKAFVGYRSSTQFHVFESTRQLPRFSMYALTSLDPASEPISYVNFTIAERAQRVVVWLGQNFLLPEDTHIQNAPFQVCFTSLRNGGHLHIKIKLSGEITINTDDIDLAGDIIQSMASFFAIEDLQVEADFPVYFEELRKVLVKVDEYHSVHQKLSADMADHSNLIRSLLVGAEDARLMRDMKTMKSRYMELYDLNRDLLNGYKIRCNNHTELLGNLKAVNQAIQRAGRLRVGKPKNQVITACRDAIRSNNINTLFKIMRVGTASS
# Variants of: B1
# Details: with pthb1_human BBS9, Q3SYG4
row,Variant,effect of a mutation on the interaction
1,D311E,with no effect
2,D311K,with no effect
3,R312A,with no effect
4,R312E,with no effect
5,R312K,with no effect
6,E313A,with no effect
7,E313K,with no effect
8,P314A,with no effect
9,P314E,with no effect
10,P314K,with no effect
11,V315A,with no effect
12,V315E,with no effect
13,V315K,with no effect
14,F316A,with no effect
15,F316E,with no effect
16,F316K,with no effect
17,S317A,with no effect
18,S317E,with no effect
19,S317K,with no effect
20,E318A,with no effect
21,E318K,with no effect
22,E319A,with no effect

row,Variant,effect of a mutation on the interaction
1,E319K,with no effect
2,L320A,with no effect
3,L320E,with no effect
4,L320K,with no effect
5,G321A,with no effect
6,G321E,with no effect
7,G321K,with no effect
8,L322A,with no effect
9,L322E,with no effect
10,L322K,disrupting interaction strength
11,A323E,disrupting interaction strength
12,A323K,with no effect
13,I324A,with no effect
14,I324E,with no effect
15,I324K,with no effect
16,E325A,with no effect
17,E325K,with no effect
18,K326A,with no effect
19,K326E,with no effect
20,L327A,with no effect
21,L327E,with no effect
22,L327K,with no effect

row,Variant,effect of a mutation on the interaction
1,K328A,with no effect
2,K328E,with no effect
3,D329A,with no effect
4,D329E,with no effect
5,D329K,with no effect
6,G330A,with no effect
7,G330E,with no effect
8,G330K,with no effect
9,F331A,with no effect
10,F331E,disrupting interaction strength
11,F331K,with no effect
12,F331S,disrupting interaction strength
13,T332A,with no effect
14,T332E,with no effect
15,T332K,with no effect
16,L333A,with no effect
17,L333E,with no effect
18,L333K,with no effect
19,Q334A,with no effect
20,Q334E,with no effect
21,Q334K,with no effect
22,G335A,with no effect

row,Variant,effect of a mutation on the interaction
1,G335E,with no effect
2,G335K,with no effect
3,L336A,with no effect
4,L336E,with no effect
5,L336K,with no effect
6,W337A,with no effect
7,W337E,with no effect
8,W337K,with no effect
9,E338A,with no effect
10,E338K,with no effect
11,V339A,with no effect
12,V339E,with no effect
13,V339K,with no effect
14,M340A,with no effect
15,M340E,with no effect
16,M340K,with no effect
17,S341A,with no effect
18,S341E,with no effect
19,S341K,with no effect

# Variants of: B2
# Details: with bbs2_human BBS2, Q9BXC9
row,Variant,effect of a mutation on the interaction
1,S326A,with no effect
2,S326E,with no effect
3,S326K,with no effect
4,G327A,with no effect
5,G327E,with no effect
6,G327K,with no effect
7,P328A,with no effect

# Reference: IntAct's records for PubMed 29039417
